Data published in patent US20220227840A1.
Where two headings read alike, the source gives them in different places.

What was measured:
[1] = molecular target: tissue factor (TF) extracellular domains (UniProt P13726); experiment: SPR, TF on chip
Target sequence in this assay (P13726 33-251 limits assumed): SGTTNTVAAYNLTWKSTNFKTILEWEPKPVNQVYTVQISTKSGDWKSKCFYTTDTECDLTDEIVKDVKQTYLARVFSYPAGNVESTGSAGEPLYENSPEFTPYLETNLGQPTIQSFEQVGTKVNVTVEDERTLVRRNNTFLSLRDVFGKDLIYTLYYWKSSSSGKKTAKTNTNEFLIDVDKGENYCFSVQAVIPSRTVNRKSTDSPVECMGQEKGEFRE

[2] = molecular target: tissue factor (TF) extracellular domains (UniProt P13726); experiment: SPR, TF on chip; remark: listed apart in the source
Target sequence in this assay (P13726 33-251 limits assumed): as above

[3] = molecular target: tissue factor (TF) extracellular domains (UniProt P13726); conditions: Fab
Target sequence in this assay (P13726 33-251): as the sequence (P13726 33-251 limits assumed) above

Substance	Kd [1] [nM]	Kd [2] [nM]	Kd [3] [nM]
D3H44 Fab H:D146G_Q179K L:Q124E_V133W_Q160E_T180E	0.0828	–	–
D3H44 Fab H:D146G_Q179R L:Q124E_Q160E_T178D	0.0816	0.082	–
D3H44 Fab H:F100M_W103V L:P44W_L89W	1.54	–	–
D3H44 Fab H:F174V_S188L L:S176G	0.0949	–	–
D3H44 Fab H:K145T_Q179D_S188F L:Q160K_T178R	0.111	–	–
D3H44 Fab H:K145T_Q179D_S188F L:V133A_Q160K_T178R	0.0856	0.086	–
D3H44 Fab H:L45W L:Y87G	0.197	–	–
D3H44 Fab H:L143A_D146G_Q179R L:Q124E_V133W_Q160E_T180E	0.0871	0.087	–
D3H44 Fab H:Q39D L:Q38R_F98W	0.127	–	–
D3H44 Fab H:Q39D_A139G_V190A L:Q38R_L135W	0.117	0.025	–
D3H44 Fab H:Q39E L:Q38R_F98W	0.163	–	–
D3H44 Fab H:Q39R L:Q38D_F98W	0.127	–	–
D3H44 Fab H:Q39R L:Q38E_F98W	0.178	–	–
D3H44 Fab H:S186R L:Q124E_Q160E_T178D	0.125	–	–
D3H44 Fab H:S188L L:S176G	0.0866	–	–
D3H44 Fab H:V37A_Q39E_W103V L:Q38N_P44W_T85K	0.55	–	–
D3H44 Fab H:V37A_Q39K_W103H L:Q38N_P44W_T85E	0.832	–	–
D3H44 Fab H:V37A_Q39R_W103V L:Q38E_P44W	0.977	–	–
D3H44 Fab H:V37E L:L89R_F98T	2.41	–	–
D3H44 Fab H:V37I_Q39D L:Q38R_F98W	0.177	–	–
D3H44 Fab H:V37I_Q39E L:Q38N_T85K_F98W	0.125	–	–
D3H44 Fab H:V37I_Q39R L:Q38D_F98W	0.101	–	–
D3H44 Fab H:V37I_Q39R L:Q38E	0.123	–	–
D3H44 Fab H:V37I_Q39R L:Q38E_F98W	0.144	–	–
D3H44 Fab H:V37I_W103H L:P44W_F98W	0.24	–	–
D3H44 Fab H:V37S_A93K L:F98Y	0.42	–	–

Substance	Kd [1] [nM]	Kd [2] [nM]	Kd [3] [nM]
D3H44 Fab H:V37T_A93Q_W103T L:P44W_F98W	1.33	–	–
D3H44 Fab H:V37T_A93Q_W103V L:P44W_F98W	0.192	–	–
D3H44 Fab H:V37W L:F98A	3.44	–	0.977
D3H44 Fab H:V37W_A93V L:F98A	0.697	–	–
D3H44 Fab H:V37W_F100W_W103L L:F98A	1.22	–	–
D3H44 Fab H:V37W_Q39D L:Q38R_F98A	1.73	–	–
D3H44 Fab H:V37W_Q39D_W103F L:Q38R_F98L	0.924	–	–
D3H44 Fab H:V37W_Q39D_W103H L:Q38R_F98L	7.89	–	–
D3H44 Fab H:V37W_Q39E L:Q38N_T85K_F98A	0.861	–	–
D3H44 Fab H:V37W_Q39E L:Q38R_F98A	0.902	–	–
D3H44 Fab H:V37W_Q39E_W103F L:Q38N_T85K_F98L	2.51	–	–
D3H44 Fab H:V37W_Q39E_W103F L:Q38R_F98L	0.172	–	–
D3H44 Fab H:V37W_Q39K L:Q38N_T85E_F98A	1.78	–	–
D3H44 Fab H:V37W_Q39K_W103F L:Q38N_T85E_F98L	0.984	–	–
D3H44 Fab H:V37W_Q39R L:Q38E_F98A	3.18	–	–
D3H44 Fab H:V37W_Q39R_W103F L:Q38E_F98L	1.11	–	–
D3H44 Fab H:V37W_Q39R_W103H L:Q38D_F98L	5.62	–	–
D3H44 Fab H:V37W_Q39R_W103H L:Q38E_F98L	2.99	–	–
D3H44 Fab H:V37W_W103F L:F98L	0.955	–	–
D3H44 Fab H:W103H L:P44W_F98W	0.212	–	–
D3H44 Fab H:W103H L:P44W_L89W_F98A	3.4	–	–
D3H44 Fab H:W103V L:P44W_F98W	0.174	–	–
D3H44 Fab H:W103V L:P44W_L89W_F98A	4.12	–	–
D3H44 Fab H:WT L:L89F_F98W	0.239	–	–
D3H44 WT Fab with FLAG-tagged light chain	–	0.0622	–
D3H44 WT Fab with HA-tagged light chain	–	0.0522	–

Results, then the substance that gave them:

Kd [1] [nM]	Kd [2] [nM]	Kd [3] [nM]	Substance
0.0586	–	–	D3H44 Fab H:A139G_V190A L:L135W
0.052	–	–	D3H44 Fab H:A139I L:F118W_V133S
0.0406	–	–	D3H44 Fab H:A139I_K145T_D146G_Q179E_S188G_V190S L:F116A_V133G_S176F_T178A
0.0525	–	–	D3H44 Fab H:D146G_Q179K L:Q124E_Q160E_T178D
0.0245	0.024	–	D3H44 Fab H:D146G_Q179K L:Q124E_Q160E_T180E
0.078	–	–	D3H44 Fab H:D146G_Q179R L:Q124E_Q160E_T180E
0.0631	–	–	D3H44 Fab H:D146G_Q179R L:Q124E_V133W_Q160E_T180E
0.0511	–	–	D3H44 Fab H:D146G_S186R L:Q124E_Q160E_T178D
0.0671	–	–	D3H44 Fab H:D146G_S186R L:Q124E_Q160E_T180E
0.0792	–	–	D3H44 Fab H:F174G_S188A L:WT
0.0399	0.04	–	D3H44 Fab H:F174V_P175S_S188G L:S176L
0.0201	–	–	D3H44 Fab H:F174V_S188L L:V133S
0.0377	–	–	D3H44 Fab H:F174V_S188L L:WT
0.0155	–	–	D3H44 Fab H:F174W_S188L L:S176G
0.0172	–	–	D3H44 Fab H:F174W_S188L L:V133S
0.0271	–	–	D3H44 Fab H:F174W_S188L L:WT
0.0219	–	–	D3H44 Fab H:K145E_D146G_Q179D_S188F L:V133A_Q160K_T178R
0.0415	–	–	D3H44 Fab H:K145E_D146G_Q179D_S188L L:Q160K_T178R
0.066	–	–	D3H44 Fab H:K145L_Q179E L:S131K
0.0705	0.071	–	D3H44 Fab H:K145T_Q179D_S188L L:Q160K_T178R

Kd [1] [nM]	Kd [2] [nM]	Kd [3] [nM]	Substance
0.0423	–	–	D3H44 Fab H:K145T_Q179D_S188L L:V133A_Q160K_T178R
0.0596	–	–	D3H44 Fab H:L143E_K145T L:Q124R
0.0769	–	–	D3H44 Fab H:L143E_K145T L:Q124R_Q160K_T178R
0.0236	0.06	–	D3H44 Fab H:L143E_K145T L:Q160K_T178R
0.0243	–	–	D3H44 Fab H:L143K_D146G L:Q124E_V133D
0.0201	–	–	D3H44 Fab H:Q39E L:Q38N_T85K
0.0348	–	–	D3H44 Fab H:Q39E L:Q38N_T85K_F98W
0.0213	–	–	D3H44 Fab H:Q39K L:Q38N_T85E
0.0134	–	–	D3H44 Fab H:Q39K L:Q38N_T85E_F98W
0.0273	–	–	D3H44 Fab H:Q39M L:Q38M
0.0229	–	–	D3H44 Fab H:Q39R L:Q38D
0.0615	–	–	D3H44 Fab H:S186K_S188H_V190G L:F118W_Q124E_V133S_S176A_T178S_T180E
0.0144	–	–	D3H44 Fab H:S188L L:V133S
0.0342	–	–	D3H44 Fab H:S188L L:WT
0.0428	0.043	–	D3H44 Fab H:S188L_V190Y L:V133S
0.0182	–	–	D3H44 Fab H:V37I_Q39E L:Q38N_T85K
0.0729	–	–	D3H44 Fab H:V37I_Q39E L:Q38R_F98W
0.0109	–	–	D3H44 Fab H:WT L:F98W
0.056	–	–	Wild-type anti-TF D3H44 Fab
